Here are results for two molecules from article PMC10196804 (The Journal of Biological Chemistry, 2023).

Substitutions are numbered along the chain they refer to.

For this experiment, the target named is T1, His-HERC2 (amino acids 2540–2700) (human, UniProt O95714 2540-2700).
T1 construct: source: E. coli BL21-CodonPlus (DE3)-RIPL, purified (nickel–nitrilotriacetic acid beads, PD-10 desalting)
T1 sequence (looked up): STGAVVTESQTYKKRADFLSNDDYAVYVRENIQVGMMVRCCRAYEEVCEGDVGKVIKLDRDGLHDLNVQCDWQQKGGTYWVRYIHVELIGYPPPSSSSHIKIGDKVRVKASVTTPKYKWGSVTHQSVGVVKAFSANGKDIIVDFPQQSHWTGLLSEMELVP
The experiment can be described thus: pull-down; GST-tagged proteins (2 μg) and His-HERC2 (amino acids 2540–2700) (2.8 μg) in 20 mM Tris–HCl pH 7.5, 150 mM NaCl, 0.1% Triton X-100, 1 mM DTT; Glutathione Sepharose beads, 1 h at 4 °C; gel stained with CBB. As to conditions: both partners purified.

B1: GST-NCOA4 (amino acids 383–522) C418S (domain or fragment, human, UniProt Q13772 383-522, looked up)
chain: SMVTEDWLVQNHQDPCKVEEVCRANEPCTSFAECVSDENCEKEALYKWLLKKEGKDKNGMPVEPKPEPEKHKDSLNMWLCPRKEVIEQTKAPKAMTPSRIADSFQVIKNSPLSEWLIRPPYKEGSPKEVPGTEDRAGKQK
notes: C418S; Absorption at 330 and 420 nm not attenuated (Fe–S cluster kept); source: E. coli BL21-CodonPlus (DE3)-RIPL, purified (Glutathione Sepharose, PD-10 desalting)
For B1, the binding result is on record as “binds”.

B2: GST-NCOA4 (amino acids 383–522) WT (domain or fragment, human, UniProt Q13772 383-522, looked up)
chain: B1 chain with S36C
notes: Vector pGEX6p-1; Bacteria were grown with Cys and FAC; the UV–visible spectrum resembles that of 2Fe–2S cluster proteins; also called glutathione S-transferase (GST)-fused NCOA4 (amino acids 383–522); source: E. coli BL21-CodonPlus (DE3)-RIPL, purified (Glutathione Sepharose, PD-10 desalting)
With B2, the binding result is given as “binds”.
